Reference: US20150105326A1 (SEOUL NATIONAL UNIVERSITY SNU R AND D FOUNDATION, published 2015)

Tests used:
[1] = target: T1, EZH2 H689A mutant (catalytically inactive mutant, MT) (UniProt Q15910 1-746); test: binding of EZH2 WT or MT with RORα in cell extracts (FIG. 15)
T1 construct: also called EZH2 MT; H689A mutant (MT) of EZH2

[2] = target: T2, Enhancer of Zeste Homolog 2 lysine methyltransferase (EZH2) wild type (UniProt Q15910 1-746); test: co-immunoprecipitation of endogenous proteins, HEK-293 cells with MG132 (FIG. 3)
T2 construct: Endogenous (HEK-293) or overexpressed, in cell extracts; also called EZH2 WT
T2 sequence (Q15910 whole entry): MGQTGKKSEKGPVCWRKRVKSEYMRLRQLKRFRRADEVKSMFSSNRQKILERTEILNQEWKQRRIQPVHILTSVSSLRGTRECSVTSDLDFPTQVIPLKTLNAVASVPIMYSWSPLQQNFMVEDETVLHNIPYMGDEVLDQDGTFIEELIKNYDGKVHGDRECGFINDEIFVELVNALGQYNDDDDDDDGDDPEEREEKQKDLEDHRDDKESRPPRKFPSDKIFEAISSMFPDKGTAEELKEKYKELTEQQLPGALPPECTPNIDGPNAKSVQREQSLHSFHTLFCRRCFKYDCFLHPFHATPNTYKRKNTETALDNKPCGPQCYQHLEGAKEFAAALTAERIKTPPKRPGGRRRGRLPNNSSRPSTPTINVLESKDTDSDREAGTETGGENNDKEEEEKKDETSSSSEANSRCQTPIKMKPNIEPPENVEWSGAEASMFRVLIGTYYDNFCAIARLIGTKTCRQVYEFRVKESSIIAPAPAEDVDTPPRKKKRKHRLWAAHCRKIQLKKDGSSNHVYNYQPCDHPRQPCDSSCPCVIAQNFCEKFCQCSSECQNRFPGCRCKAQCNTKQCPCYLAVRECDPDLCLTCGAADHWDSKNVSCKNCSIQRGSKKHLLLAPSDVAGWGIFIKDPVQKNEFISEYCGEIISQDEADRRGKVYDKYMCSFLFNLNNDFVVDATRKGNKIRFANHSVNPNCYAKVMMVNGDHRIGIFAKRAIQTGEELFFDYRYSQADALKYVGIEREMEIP

[3] = target: T3, DDB1-CUL4-associated factor 1 adaptor (DCAF1) (UniProt Q9Y4B6 1-1507); test: co-immunoprecipitation, HEK-293 cells with 20 µM MG132 (FIG. 23 legend)
T3 construct: Endogenous or overexpressed in HEK-293 cells, in cell extracts; also called VprBP
T3 sequence (Q9Y4B6 whole entry): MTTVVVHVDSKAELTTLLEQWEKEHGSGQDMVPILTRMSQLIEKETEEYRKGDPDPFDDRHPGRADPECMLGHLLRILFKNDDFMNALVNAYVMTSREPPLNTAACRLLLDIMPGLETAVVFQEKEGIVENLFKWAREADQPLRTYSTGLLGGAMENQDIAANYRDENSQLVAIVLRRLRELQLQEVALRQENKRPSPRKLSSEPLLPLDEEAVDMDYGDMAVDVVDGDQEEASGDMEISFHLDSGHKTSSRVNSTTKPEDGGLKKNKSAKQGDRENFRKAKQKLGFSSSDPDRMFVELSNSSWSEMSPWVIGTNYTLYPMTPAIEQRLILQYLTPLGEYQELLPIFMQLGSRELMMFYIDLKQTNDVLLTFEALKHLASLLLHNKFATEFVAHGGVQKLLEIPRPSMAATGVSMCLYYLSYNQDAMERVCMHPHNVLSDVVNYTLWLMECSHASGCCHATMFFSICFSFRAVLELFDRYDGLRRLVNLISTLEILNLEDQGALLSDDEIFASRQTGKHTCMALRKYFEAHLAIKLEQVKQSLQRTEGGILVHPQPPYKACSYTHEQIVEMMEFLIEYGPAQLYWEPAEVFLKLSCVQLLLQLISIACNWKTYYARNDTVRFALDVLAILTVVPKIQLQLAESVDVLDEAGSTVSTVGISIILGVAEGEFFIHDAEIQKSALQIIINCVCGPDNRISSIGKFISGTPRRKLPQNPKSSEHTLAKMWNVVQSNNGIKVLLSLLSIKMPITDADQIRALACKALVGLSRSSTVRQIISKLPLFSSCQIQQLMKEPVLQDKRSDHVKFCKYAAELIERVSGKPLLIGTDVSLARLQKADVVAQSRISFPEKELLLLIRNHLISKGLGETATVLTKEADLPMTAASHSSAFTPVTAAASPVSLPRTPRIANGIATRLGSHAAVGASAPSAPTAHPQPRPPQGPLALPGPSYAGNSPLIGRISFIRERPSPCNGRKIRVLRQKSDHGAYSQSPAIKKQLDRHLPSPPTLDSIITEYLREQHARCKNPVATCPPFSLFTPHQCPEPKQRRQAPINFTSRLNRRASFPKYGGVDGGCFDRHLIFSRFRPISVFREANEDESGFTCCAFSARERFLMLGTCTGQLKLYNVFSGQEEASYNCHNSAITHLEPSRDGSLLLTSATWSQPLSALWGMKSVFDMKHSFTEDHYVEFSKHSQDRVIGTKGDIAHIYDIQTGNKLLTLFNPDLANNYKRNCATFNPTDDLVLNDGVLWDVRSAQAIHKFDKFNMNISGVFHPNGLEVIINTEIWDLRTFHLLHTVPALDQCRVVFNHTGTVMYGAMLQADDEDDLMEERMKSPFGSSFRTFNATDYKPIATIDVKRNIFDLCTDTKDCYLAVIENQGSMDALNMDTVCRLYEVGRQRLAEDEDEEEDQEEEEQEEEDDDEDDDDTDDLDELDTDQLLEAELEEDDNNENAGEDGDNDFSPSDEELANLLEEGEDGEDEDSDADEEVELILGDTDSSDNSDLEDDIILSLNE

T1 sequence (Q15910 whole entry H689A): as the sequence (Q15910 whole entry) above, with H689A counted along it

binding result [1]: binds
binding result [2]: binds
binding result [3]: binds
B1: retinoic acid-related orphan nuclear receptor α (RORα) wild type (receptor, UniProt P35398-2 1-523, looked up)
chain: MESAPAAPDPAASEPGSSGADAAAGSRETPLNQESARKSEPPAPVRRQSYSSTSRGISVTKKTHTSQIEIIPCKICGDKSSGIHYGVITCEGCKGFFRRSQQSNATYSCPRQKNCLIDRTSRNRCQHCRLQKCLAVGMSRDAVKFGRMSKKQRDSLYAEVQKHRMQQQQRDHQQQPGEAEPLTPTYNISANGLTELHDDLSNYIDGHTPEGSKADSAVSSFYLDIQPSPDQSGLDINGIKPEPICDYTPASGFFPYCSFTNGETSPTVSMAELEHLAQNISKSHLETCQYLREELQQITWQTFLQEEIENYQNKQREVMWQLCAIKITEAIQYVVEFAKRIDGFMELCQNDQIVLLKAGSLEVVFIRMCRAFDSQNNTVYFDGKYASPDVFKSLGCEDFISFVFEFGKSLCSMHLTEDEIALFSAFVLMSADRSWLQEKVKIEKLQQKIQLALQHVLQKNHREDGILTKLICKVSTLRALCGRHTEKLMAFKAIYPDIVRLHFPPLYKELFTSEFEPAMQIDG
modifications: K38 mono-methylated by EZH2 in cells (the fraction methylated is not stated)
notes: Endogenous protein of HEK-293 cells in some co-immunoprecipitations, 3x-Flag-tagged (3x-Flag-CMV-RORα) in others; the tag is not written as a piece; also called RORα WT; Flag-RORα
